B1: AAVR cytosolic tail peptide lacking the predicted sorting signal (residues 956-967) (peptide)
peptide: KRQKGKPKRKSK
B2: AAVR cytosolic tail peptide (residues 956-974) (peptide)
peptide: KRQKGKPKRKSKYKILDAT
B3: DMT1-II cargo peptide (residues 550-568) (peptide)
peptide: AQPELYLLNTMDADSLVSR

Target: retromer–SNX3 complex (VPS26A, VPS35-VPS29 fusion, SNX3) (human) (UniProt Q96QK1)

Binder	proportion of liposomes tubulated (cryo-EM; liposomes with retromer, SNX3 and the peptide lacking the motif)	mean tube length per liposome (liposome tubulation with retromer and SNX3)	proportion of liposomes tubulated (cryo-EM; 2.5 uM retromer, 8.75 uM SNX3, 25 uM peptide, 600 uM liposomes, overnight at 4°C; n = 3)
B1	0%	–	–
B2	–	503 nm	3.54%
B3	–	568 nm	4.15%
